{"source": "paper PMC4380455", "about": "(PLoS ONE, 2015)", "molecules": {"B1": {"name": "TM1088B (natural protein, T. maritima, UniProt D3KFX8 1-218, looked up)", "chain": "MKVIIIGGETTAYYLARSMLSRKYGVVIINKDRELCEEFAKKLKATIIHGDGSHKEILRDAEVSKNDVVVILTPRDEVNLFIAQLVMKDFGVKRVVSLVNDPGNMEIFKKMGITTVLNLTTLITNTVEALIFPDEFSSIIPLEQGIEFLSVNVEEDSPVVGKKLKDLPLPRDSIIAAIVRGGVLVVPRGDTEILSGDKLYVIVSAEAKETVEETLLGR", "notes": "TM1088B of Thermotoga maritima MSB8 (DSM3109), full length, residues 1-218, 24.0 kDa; UniProt D3KFX8_THEMA; also called N1 and C1 domains"}}, "key": {"TM1088A": {"molecular_target": "T1, TM1088A (Thermotoga maritima, UniProt D3KFX7)", "T1 construct": "gene TM1088", "assay": "X-ray crystal structure, […] Å", "type": "binding", "settings": "AMP co-purified from E. coli host, not added; nucleotide site GXGXXG (Gly14/Gly16/Gly19), Arg17, Ala59, Arg105; crystallised pH 6.5"}, "[1]": {"molecular_target": "the molecule itself", "assay": "crystal structure; TM1088A:TM1088B octameric assembly (4 TM1088A, 4 TM1088B, 4 AMP in the asymmetric unit), 3.45 Å, PDB 3L4B; complex at 3 mg/ml with NADH added 1.1:1.0; 0.1 M magnesium chloride, 15% PEG 4000, 0.1 M HEPES pH 7.0"}, "TM1088B": {"molecular_target": "B1", "assay": "crystal structure; TM1088A:TM1088B octameric assembly (4 TM1088A, 4 TM1088B, 4 AMP in the asymmetric unit), 3.45 Å, PDB 3L4B; complex at 3 mg/ml with NADH added 1.1:1.0; 0.1 M magnesium chloride, 15% PEG 4000, 0.1 M HEPES pH 7.0", "settings": "both partners purified"}, "[2]": {"molecular_target": "the molecule itself", "assay": "crystal structure; TM1088A alone, 1.50 Å, PDB 2G1U; one molecule in the asymmetric unit, dimer formed in the crystal lattice; 40% MPD, 5% PEG-8000, 0.1 M cacodylate pH 6.5, 293 K"}, "[3]": {"molecular_target": "the molecule itself", "assay": "crystal structure; TM1088B C-terminal domain (140-218) alone, tag intact, 1.55 Å, PDB 3JXO; two chains in the asymmetric unit; 25% ethylene glycol, 293 K"}}, "data": [{"molecule": "Nc1ncnc2c1ncn2[C@@H]1O[C@H](COP(=O)(O)O)[C@@H](O)[C@H]1O", "note": "[AMP]", "values": [{"measurement": "X-ray crystal structure, 1.50 Å", "setting": "TM1088A", "value": "AMP was co-purified with TM1088A and appears in both the high-resolution TM1088A structure"}]}, {"molecule": "B1", "values": [{"measurement": "stoichiometry N", "setting": "[1]", "value": 2}]}, {"molecule": "TM1088A (natural protein, T. maritima, UniProt D3KFX7 1-143, looked up, TM1088A of Thermotoga maritima MSB8 (DSM3109), full length, residues 1-143, 16.0 kDa; UniProt D3KFX7_THEMA; first open reading frame of the TM1088 locus; The same construct was purified alone (2G1U) and in complex with untagged TM1088B (3L4B) from one plasmid by different purification schemes; AMP co-purified with it; Tag residues are numbered Met(-11) to 0; also called TM_1087.1; N2 domain; …) MSKKQKSKYIVIFGCGRLGSLIANLASSSGHSVVVVDKNEYAFHRLNSEFSGFTVVGDAAEFETLKECGMEKADMVFAFTNDDSTNFFISMNARYMFNVENVIARVYDPEKIKIFEENGIKTICPAVLMIEKVKEFIIGSEED", "values": [{"measurement": "binding result", "setting": "TM1088B", "value": "binds"}, {"measurement": "stoichiometry N", "setting": "[2]", "value": 2}]}, {"molecule": "TM1088B C-terminal domain (domain or fragment, T. maritima, UniProt D3KFX8 140-218, looked up, TM1088B of Thermotoga maritima MSB8 (DSM3109), C-terminal domain, residues 140-218; UniProt D3KFX8_THEMA; Crystallised with the tag intact; also called TM1088B (residues 140-218); C1 domain; source: E. coli HK100, plasmid pSpeedET-TM1088B, purified (Ni-NTA agarose)) IPLEQGIEFLSVNVEEDSPVVGKKLKDLPLPRDSIIAAIVRGGVLVVPRGDTEILSGDKLYVIVSAEAKETVEETLLGR", "values": [{"measurement": "stoichiometry N", "setting": "[3]", "value": 2}]}]}
